± gives the uncertainty stated by the source.

One data set is described as follows: amyloid nucleation score (Sup35N fusion, yeast selection) (log enrichment); library NNK1; higher = more nucleation; inactive = no reads after selection. In a few lines:
(§1)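 Libraries of peptides of 20 random codons fused to Sup35N were expressed in psi-negative yeast and induced 24 hours with 100 μM copper sulfate. Selection was 7 days at 30°C on medium lacking adenine and uracil, and plasmid inserts were Illumina-sequenced before and after selection. Nucleation score is the DiMSum log enrichment of output over input reads, centred on the mode score of non-aggregating sequences, and sequences with under 100 input reads were left out.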
In the case of AKLDWHIRTAEWGLPKLLLT, the amyloid nucleation score result was “inactive”.
The substance EKFGRRCCSFGRSVSEWVTK came in with an amyloid nucleation score of 0.999 ± 0.66.
Regarding TTFGRPSTPH, the amyloid nucleation score is -0.393 ± 0.38.
On the same count and under the same terms, as for CRNSTVGITLIGWTSHFFNI, the figure is 1.2 ± 0.76; as for NNSSHGCRNVRNSQMSFVPQ, -0.165 ± 0.75.
On the same count and under the same terms, as for ISQVYGDNTDFVLLVSSDNV, the figure is 0.544 ± 0.33; as for TLTCFLIYHTWTR, -1.34 ± 1.4; as for SCLWSSCCVV, 0.171 ± 0.44.
The same measure, in the same setting: the figure for PNTLYSLTIIMSARLNSSLL is 0.371 ± 0.57; for VANQNHLSCDIMSSARCERH it is 0.244 ± 0.65; for LSCDVQWLCLESNCE it is 3.96 ± 0.07.
Substance YTFGDAGHPESAMVTCRAYS displayed an amyloid nucleation score of -0.007 ± 0.33.
Take VLFLDI: the amyloid nucleation score was 0.793 ± 0.58.
Consider DAALVIYLL, for which the amyloid nucleation score is -0.6 ± 0.52.
For VMLVVMGLFELFWLSNVV, the amyloid nucleation score entry is “inactive”.
The substance NNMRVLLRFLSVVLGSGEVR came in with an amyloid nucleation score of 1.01 ± 0.67.
The same measure, in the same setting: as for CMGPYFSGMSEFRGTLSVHA, the figure is -0.491 ± 1.9; as for VLMLRSGWPQRRPHFG, -0.301 ± 0.76; as for TLVTEESWMSLLSVNIAQ, -0.378 ± 0.59.
VEAMLTEPWRWH registered an amyloid nucleation score of -0.522 ± 1.7.
HRGLSLLAGVSALVWKSQMT showed an amyloid nucleation score of -0.4 ± 1.1.
The substance YTVVLEKTKVMYTVAPPRSL gave an amyloid nucleation score of -1.04 ± 2.4.
TNFRRSCYVDGVC: the amyloid nucleation score result was “inactive”.
As to YALKLSMDVGLYLLFEGDRD, the amyloid nucleation score was -1.36 ± 1.9.
With LLNDSINNPQCFIVSSSGHL, the amyloid nucleation score is -0.541 ± 0.39.
Take RSWPSCNCVAKANMCFARSL: the amyloid nucleation score was -0.521 ± 0.39.
For the substance HSSDMCLSGLM, the amyloid nucleation score is 0.002 ± 1.4.
On to NTSELRGNMSRHCKNSGGVI, for which the amyloid nucleation score was -0.058 ± 0.62.
Take ELYPGF: the amyloid nucleation score was -0.219 ± 1.2.
Still for that read-out and setting: as for VPIVGDLEKVMGCYSYWANK, the figure is -0.011 ± 0.18; as for FLQCNRNSVGRLVAHLCCAR, “inactive”.
The same measure, in the same setting: the figure for PLVSTHALSAGILYCFKFYR is 5.57 ± 0.097; for MVRGQVNPNSFNARWY it is “inactive”.
On the same count and under the same terms, as for FHALGCK, the figure is -0.38 ± 0.41; as for AWGRLAGYRRGSWMYYCCNS, 0.435 ± 0.82; as for LVFFCNM, 7.824 ± 0.06.
In turn, FCLNLQYRSKMMHRANICL yielded an amyloid nucleation score of 0.159 ± 0.17.
On to LGIYNGEASRWYRESTPAQ, for which the amyloid nucleation score was -0.443 ± 0.92.
On to IHKMCRAD, for which the amyloid nucleation score worked out at 0.12 ± 0.55.
The same measure, in the same setting: the figure for RQFIELKCLFPMADVIVF is 0.315 ± 0.38; for GWCRG it is “inactive”.
On the same count and under the same terms, as for SFIDDCP, the entry is “inactive”.
LMQLHCLARSLYPFPWSGPT: the amyloid nucleation score is 1.96 ± 0.42.
The same measure, in the same setting: the entry for MAGSSMTISVLYSWIP is “inactive”; for QSTNLAFLRICECSE it is 3.8 ± 0.071; for CFRYVCIILMSVLMNYNFVY it is -0.05 ± 0.2.
Same read-out and setting: the figure for DCNLSSYLVYWAFHYDKLMS is 0.083 ± 0.58; for SLIRSMTISDNLIMWAGWTY it is -0.7 ± 0.38.
Still for that read-out and setting: as for VPSFITYLVVDLWDALQGYH, the figure is 0.409 ± 0.42; as for SGVLVGYHRDLDVDMNLNPM, -0.419 ± 0.4; as for LVELNIGTTLCWQMRLRNVG, -0.037 ± 1.7.
Consider TIWLDCLMDKTYVFDCLFSF, for which the amyloid nucleation score is 0.587 ± 1.1.
Still for that read-out and setting: the entry for TMIWFQLRTTLLNYQATVFL is “inactive”; for LCGIVRKILQTSKRSR it is 0.063 ± 0.49; for LATFVWPGHGRV it is 1.65 ± 0.14.
As for NCGTVHGHADGSYVCDMGSR, the amyloid nucleation score is -0.022 ± 0.98.
On the same count and under the same terms, the figure for FNKQFCK is 0.776 ± 0.44.
On the same count and under the same terms, the figure for EGVVMRISWKNTNGHVYEKG is 2.06 ± 0.23; for LYNRIANFGPGYINLWVI it is 6.375 ± 0.061.
In turn, KDRWTCSFVAVCMRYLFAKS gave an amyloid nucleation score of 0.134 ± 0.46.
On the same count and under the same terms, the figure for ASRSCIVSRRASGPHVCCQV is 0.098 ± 0.91; for CLQCKCYNNCVQLRVTVGCM it is 1.37 ± 0.52; for YLEVPMKFFEFFGFRPVAFV it is -0.121 ± 0.54.
In turn, TMVFVCSNYGPSFSLLVC showed an amyloid nucleation score of 2.83 ± 0.24.
Still for that read-out and setting: as for KGAIPFSSDCGGLSGLILYC, the figure is 0.301 ± 0.54.
In turn, GYLSGSMSDETGTPDMCTRG registered an amyloid nucleation score of 0.353 ± 0.51.
Substance PDHLTIQSCDARYGFASQL returned an amyloid nucleation score of 1.78 ± 0.47.
For QYPLMK, the amyloid nucleation score was 0.319 ± 0.32.
Same read-out and setting: as for SSSKYMIFFYRAIHHHKGME, the figure is 0.31 ± 0.33.
The same measure, in the same setting: the figure for MLIKSIFIFSTLLYISMYD is 0.786 ± 0.29; for LGYIVRFQCMYTRRYCSCPD it is -1.47 ± 2.7.
The same measure, in the same setting: as for PYKGIVMFVSGPP, the figure is -0.068 ± 0.54.
GTYRRQKMELMYSSLGLFGC returned an amyloid nucleation score of -0.634 ± 0.56.
Consider HGGRDVCDKGVSSRGHRW, for which the amyloid nucleation score is 0.276 ± 0.79.
Same read-out and setting: as for SYRHSSTSCKFGYVYRFTCL, the figure is 1.19 ± 0.41; as for KYLSYTVVCGLTNDSWHLMH, -0.196 ± 0.46; as for PCYRLWLVSAWAVTQEFTSW, 1.35 ± 0.14.
Consider VFYFYYFDEMCVSSMNRLKL, for which the amyloid nucleation score was -0.36 ± 0.27.
Still for that read-out and setting: the figure for ADRKSFLQSCGLCE is -0.661 ± 0.32.
As to RSSPHSGWQPVDLKY, the amyloid nucleation score is -1.37 ± 2.4.
VAFLTKNCYEFDDTVRTCAV gave an amyloid nucleation score of -0.569 ± 0.42.
The same measure, in the same setting: as for LSLILFVCRIYTYSCSHRAL, the figure is 0 ± 0.36; as for FMIHMLTGSLLRVNDCNLGE, 0.987 ± 0.64; as for LLMAIVCIMIRQGFLRHVSP, -0.086 ± 0.56.
The same measure, in the same setting: as for YKSLDGF, the figure is 0.704 ± 0.93.
In the case of LLYTVY, the amyloid nucleation score was -0.849 ± 1.2.
Still for that read-out and setting: the figure for SIQCKKFGGIWCTDTRSIGP is 1.33 ± 0.33; for MTGQTCRFEGSFRFMERCRK it is 0.43 ± 1.
In turn, WYAFERFDFHLCVDVVQLTR came in with an amyloid nucleation score of 1.11 ± 0.94.
Take CMVMFCCWNMWVDSVH: the amyloid nucleation score is 7.237 ± 0.069.
On the same count and under the same terms, as for LHYCTCSIRSIF, the figure is 0.325 ± 0.6; as for YFEWFVYLYSSRVFFLMLGR, -0.038 ± 0.62; as for DLFRSSLSPVSLLHSDMDMG, 0.12 ± 0.41.
As for IPTFSKIGKLFYVCGAEFSD, the amyloid nucleation score is -0.355 ± 0.88.
On the same count and under the same terms, as for IRSEDKITFPGLCKSRLELV, the figure is 0.845 ± 0.67.
On the same count and under the same terms, the figure for CNIMRSLWLGAIVCMSTMYC is -0.396 ± 0.73; for SSFIPF it is 0.1 ± 0.32.
Still for that read-out and setting: as for NLYMANGDVMCSREGAEQCS, the figure is 1.5 ± 0.14; as for LGLRGKKLRIINAPYTTGRN, -0.64 ± 0.98; as for NHALYDIWLIALSSRLYCQN, 0.342 ± 0.4.
The substance EVYRVTAYVLFYGICQLTLE yielded an amyloid nucleation score of -0.53 ± 0.32.
Same read-out and setting: the figure for LRIDFGDATSVGRRRFMCTV is -0.199 ± 1.5; for FADAASNPNAII it is 0.071 ± 0.4.
On the same count and under the same terms, as for SIDTPYFALNRCALIHTSFT, the figure is 0.825 ± 0.52; as for FHLSDGDWYCHVESVTWRAC, 0.375 ± 0.87.
Still for that read-out and setting: as for LRMNLSRKPANFCFKCIIGK, the figure is -0.348 ± 0.5.
FCGAVVFNVVWCYWNKIAVL displayed an amyloid nucleation score of 1.79 ± 0.12.
On the same count and under the same terms, the figure for RVSRLPFDECSFLLVTVEGI is 0.311 ± 0.49.
Same read-out and setting: as for MGVDYARSVW, the figure is -0.202 ± 0.76; as for YVFLRFVSVCSYN, 4.9 ± 0.05; as for GQTITP, -0.689 ± 1.
VPFSGSDNGGTYDCLDWNEG had an amyloid nucleation score of -0.299 ± 0.63.
Same read-out and setting: as for VQEFYDLKEYWS, the figure is -0.265 ± 0.35; as for YLCSSVPLSEHNLILSITWD, “inactive”; as for TGYGSDNCI, “inactive”.
On the same count and under the same terms, as for NKIGRAFVTSYGLRIHSGAG, the figure is -0.32 ± 0.76.
On the same count and under the same terms, as for FCNLYVEWFLGDNVKVTRYR, the figure is 3.58 ± 0.095; as for ASFVSLVSAPESFNGFAVQN, -0.006 ± 0.48.
Take SVRYWAYRFVHF: the amyloid nucleation score result was “inactive”.
Still for that read-out and setting: as for KNMAYHDSLDSVYPAVG, the figure is 0.32 ± 0.57.
SLRSPWDRCSFRHFLPFFTM returned an amyloid nucleation score of -0.735 ± 0.69.
Substance SGRPLNNVWGVTWEIMRLSL had an amyloid nucleation score of -0.839 ± 0.86.
On the same count and under the same terms, the figure for LSHGSIQMVYPELR is -0.829 ± 1.6; for VTRDMCGYLVCFWQYAG it is 7.728 ± 0.045; for SLFKNR it is 0.171 ± 0.61.
On the same count and under the same terms, as for TDFMVGCVNMRRSESVWYC, the figure is 0.767 ± 0.39.
Same read-out and setting: the entry for ILYGRIR is “inactive”; for SCERW it is -0.111 ± 0.45; for LWFQLLMLEFSRNKPIQTVG it is -0.138 ± 0.64.
For AVFGTIIESFMSGG, the amyloid nucleation score worked out at 0.399 ± 0.34.
LVFSRFLGSVLVNEPSEATR: the amyloid nucleation score was 0.203 ± 1.5.
On the same count and under the same terms, as for CWYET, the figure is -1.27 ± 1.9; as for FGSRQVYWSRRMIVQGQVMK, -0.837 ± 0.71.
In turn, PLVNVYSSAYYSRHLKGLCV showed an amyloid nucleation score of -0.782 ± 0.69.
Same read-out and setting: as for IMCIHSFCFCLRPSHLIVGG, the figure is 0.774 ± 0.41.
On the same count and under the same terms, the figure for TGYWKSFSSAF is 0.072 ± 0.93; for VADCPCLGLVNTLAETMNVC it is 0.243 ± 0.6.

A short description of a further data set: amyloid nucleation score (Sup35N fusion, yeast selection) (log enrichment); library NNK2; higher = more nucleation; inactive = no reads after selection. In a few lines:
as §1
AKLDWHIRTAEWGLPKLLLT: the amyloid nucleation score was -0.467 ± 0.54.

Values taken from the supplement of paper PMC12042874.
